# Reference: PMC4141020 (Traffic (Copenhagen, Denmark), 2014)
# T1: Mpl expressed as an mKO2 fusion protein (Mpl^mKO2) (human, UniProt P40238 26-635)
# T1 sequence (looked up): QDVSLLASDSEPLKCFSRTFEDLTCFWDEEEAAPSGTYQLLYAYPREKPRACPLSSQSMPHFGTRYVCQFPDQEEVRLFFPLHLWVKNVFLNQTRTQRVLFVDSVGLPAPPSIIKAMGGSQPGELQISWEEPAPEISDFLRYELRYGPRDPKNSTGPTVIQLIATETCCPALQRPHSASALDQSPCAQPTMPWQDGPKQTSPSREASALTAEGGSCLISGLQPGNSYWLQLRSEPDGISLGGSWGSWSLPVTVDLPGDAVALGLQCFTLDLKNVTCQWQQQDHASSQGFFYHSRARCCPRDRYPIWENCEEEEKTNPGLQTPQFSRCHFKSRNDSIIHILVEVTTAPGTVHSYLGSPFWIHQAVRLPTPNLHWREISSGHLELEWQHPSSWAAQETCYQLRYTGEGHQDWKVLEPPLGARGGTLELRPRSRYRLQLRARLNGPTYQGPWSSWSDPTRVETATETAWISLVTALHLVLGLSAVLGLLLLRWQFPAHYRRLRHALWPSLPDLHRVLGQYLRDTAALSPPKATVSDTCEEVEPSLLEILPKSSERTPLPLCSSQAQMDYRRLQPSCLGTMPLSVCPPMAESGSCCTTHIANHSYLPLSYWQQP
# Molecular target: T1, Mpl expressed as an mKO2 fusion protein …
# Test: co-IP
binder,measurement,value
"Jak2WT (endogenous wildtype Jak2 of K562 cells) (enzyme, human (endogenous in K562), UniProt O60674 1-1132, looked up) MGMACLTMTEMEGTSTSSIYQNGDISGNANSMKQIDPVLQVYLYHSLGKSEADYLTFPSGEYVAEEICIAASKACGITPVYHNMFALMSETERIWYPPNHVFHIDESTRHNVLYRIRFYFPRWYCSGSNRAYRHGISRGAEAPLLDDFVMSYLFAQWRHDFVHGWIKVPVTHETQEECLGMAVLDMMRIAKENDQTPLAIYNSISYKTFLPKCIRAKIQDYHILTRKRIRYRFRRFIQQFSQCKATARNLKLKYLINLETLQSAFYTEKFEVKEPGSGPSGEEIFATIIITGNGGIQWSRGKHKESETLTEQDLQLYCDFPNIIDVSIKQANQEGSNESRVVTIHKQDGKNLEIELSSLREALSFVSLIDGYYRLTADAHHYLCKEVAPPAVLENIQSNCHGPISMDFAISKLKKAGNQTGLYVLRCSPKDFNKYFLTFAVERENVIEYKHCLITKNENEEYNLSGTKKNFSSLKDLLNCYQMETVRSDNIIFQFTKCCPPKPKDKSNLLVFRTNGVSDVPTSPTLQRPTHMNQMVFHKIRNEDLIFNESLGQGTFTKIFKGVRREVGDYGQLHETEVLLKVLDKAHRNYSESFFEAASMMSKLSHKHLVLNYGVCVCGDENILVQEFVKFGSLDTYLKKNKNCINILWKLEVAKQLAWAMHFLEENTLIHGNVCAKNILLIREEDRKTGNPPFIKLSDPGISITVLPKDILQERIPWVPPECIENPKNLNLATDKWSFGTTLWEICSGGDKPLSALDSQRKLQFYEDRHQLPAPKWAELANLINNCMDYEPDFRPSFRAIIRDLNSLFTPDYELLTENDMLPNMRIGALGFSGAFEDRDPTQFEERHLKFLQQLGKGNFGSVEMCRYDPLQDNTGEVVAVKKLQHSTEEHLRDFEREIEILKSLQHDNIVKYKGVCYSAGRRNLKLIMEYLPYGSLRDYLQKHKERIDHIKLLQYTSQICKGMEYLGTKRYIHRDLATRNILVENENRVKIGDFGLTKVLPQDKEYYKVKEPGESPIFWYAPESLTESKFSVASDVWSFGVVLYELFTYIEKSKSPPAEFMRMIGNDKQGQMIVFHLIELLKNNGRLPRPDGCPDEIYMIMTECWNNNVNQRPSFRDLALRVDQIRDNMAG",fold more co-immunoprecipitated than Jak2V617F with endogenous Mpl in HEL cells,~8 fold
